Data taken from paper PMC7275062.

B1: Plasmodesmata-located protein 5 (PDLP5), EGFP or mCherry fusion [Arabidopsis thaliana] / itself (parent)
chain: SPTDNYIYAVCSPAKFSPSSGYETNLNSLLSSFVTSTAQTRYANFTVPTGKPEPTVTVYGIYQCRGDLDPTACSTCVSSAVAQVGALCSNSYSGFLQMENCLIRYDNKSFLGVQDKTLILNKCGQPMEFNDQDALTKASDVIGSLGTGDGSYRTGGNGNVQGVAQCSGDLSTSQCQDCLSDAIGRLKSDCGMAQGGYVYLSKCYARFSVGGSHARQTPGPNFGHEGEKGNKDDNGVGKTLAIIIGIVTLIILLVVFLAFVGKCCRKLQDEKWCK
B2: Plasmodesmata-located protein 5 (PDLP5), EGFP or mCherry fusion [Arabidopsis thaliana] / Plasmodesmata-located protein 5 (PDLP5), EGFP or mCherry fusion [Arabidopsis thaliana] (parent)
chain 1: B1 chain
chain 2: B1 chain

Variants of: B1
Assay: FRET
Conditions: with itself; at plasmodesmata; EGFP-fused donor and mCherry-fused acceptor; n=12; parent: 20; read off a plot

| Variant | response (% FRET efficiency) |
| --- | --- |
| SPTDNYIYAVCSPAKFSPSSGYETNLNSLLSSFVTSTAQTRYANFTVPTGKPEPTVTVYGIYQCRGDLDPTACSTCVSSAVAQVGALCSNSYSGFLQMENCLIRYDNKSFLGVQDKTLILNKCGQPMEFNDQDALTKASDVIGSLGTGDGSYRTGGNGNVQGVAQCSGDLSTSQCQDCLSDAIGRLKSDCGMAQGGYVYLSKCYARFSVGGSHARQTPGPNFGHEGEKGNKDDNGVGKTLVIIIVIVTLIILLVVFLAFVGKCCRKLQDEKWCK [chain 1 A241V G245V] | 17 |

Variants of: B2
Assay: FRET
Conditions: with Plasmodesmata-located protein 5 (PDLP5), at plasmodesmata, PDLP5-EGFP donor and PDLP5VV-mCherry acceptor, n=21, parent: 20, read off a plot

| Variant | response (% FRET efficiency) |
| --- | --- |
| chain 1 SPTDNYIYAVCSPAKFSPSSGYETNLNSLLSSFVTSTAQTRYANFTVPTGKPEPTVTVYGIYQCRGDLDPTACSTCVSSAVAQVGALCSNSYSGFLQMENCLIRYDNKSFLGVQDKTLILNKCGQPMEFNDQDALTKASDVIGSLGTGDGSYRTGGNGNVQGVAQCSGDLSTSQCQDCLSDAIGRLKSDCGMAQGGYVYLSKCYARFSVGGSHARQTPGPNFGHEGEKGNKDDNGVGKTLVIIIVIVTLIILLVVFLAFVGKCCRKLQDEKWCK [chain 1 A241V G245V] | 16 |

Same assay, conditions: with Plasmodesmata-located protein 5 (PDLP5), at plasmodesmata, PDLP5VV-EGFP donor and PDLP5-mCherry acceptor, n=15, parent: 20, read off a plot

| Variant | response (% FRET efficiency) |
| --- | --- |
| chain 1 SPTDNYIYAVCSPAKFSPSSGYETNLNSLLSSFVTSTAQTRYANFTVPTGKPEPTVTVYGIYQCRGDLDPTACSTCVSSAVAQVGALCSNSYSGFLQMENCLIRYDNKSFLGVQDKTLILNKCGQPMEFNDQDALTKASDVIGSLGTGDGSYRTGGNGNVQGVAQCSGDLSTSQCQDCLSDAIGRLKSDCGMAQGGYVYLSKCYARFSVGGSHARQTPGPNFGHEGEKGNKDDNGVGKTLVIIIVIVTLIILLVVFLAFVGKCCRKLQDEKWCK [chain 1 A241V G245V] | 19 |
